{"source": "patent US20190300618A1", "about": "(Merck Sharp & Dohme, published 2019)", "molecules": {"B1": {"name": "hCD27.15-6B (humanized hCD27.15, human IgG4, Clone 6B) (antibody, V domains shown)", "VH": "QVQLVQSGAEVKKPGASVKVSCKASGFIIKATYMHWVRQAPGQRLEWMGRIDPANGETKYDPKFQVRVTITADTSASTAYMELSSLRSEDTAVYYCARYAWYFDVWGQGTLVTVSS", "VL": "DIQMTQSPSSLSASVGDRVTITCRASENIYSFLAWYQQKPGKAPKLLIYHAKTLAEGVTSRFSGSGSGTDFTLTISSLQPEDSATYYCQHYYGSPLTFGQGTRLEIKR", "notes": "humanized version of hCD27.15 from WO2012/004367 with identical CDR regions; also called hCD27.15 (humanized 6B); hCD27.15 6B humanized antibody"}}, "key": {"[1]": {"target": "human CD27 (wild type), expressed on cells (human) (UniProt P26842)", "assay": "cell ELISA on transfected CHO cells"}, "[2]": {"target": "human CD27 (A59T), expressed on cells (human) (UniProt P26842)", "assay": "cell-based or functional assay"}, "[3]": {"target": "human CD27 (wild type), expressed on cells (human) (UniProt P26842)", "assay": "cell-based or functional assay"}, "[4]": {"target": "human CD27 (wild type), expressed on cells (human) (UniProt P26842)", "assay": "cell ELISA on CD27-transfected CHOK1 cells"}, "[5]": {"target": "human CD27 (wild type), expressed on cells (human) (UniProt P26842)", "assay": "competition cell ELISA on CHO-hCD27; competitor detected: mouse hCD27.15 at 1 µg/ml"}, "[6]": {"target": "human CD27 (wild type), expressed on cells (human) (UniProt P26842)", "assay": "flow cytometry on primary T cells"}, "[7]": {"target": "human CD27 (wild type), expressed on cells (human) (UniProt P26842)", "assay": "flow cytometry MFI on CD8+ T cells from peripheral blood"}, "W13A": {"target": "W13A", "assay": "flow cytometry, CHO-K1; sub-column 2 of 2"}, "D43A": {"target": "D43A", "assay": "flow cytometry, CHO-K1; sub-column 2 of 2"}, "R37A": {"target": "R37A", "assay": "flow cytometry, CHO-K1; sub-column 2 of 2"}, "K38A": {"target": "K38A", "assay": "flow cytometry, CHO-K1; sub-column 2 of 2"}, "P8A": {"target": "P8A", "assay": "flow cytometry, CHO-K1; sub-column 2 of 2"}, "S63A": {"target": "S63A", "assay": "flow cytometry, CHO-K1; sub-column 2 of 2"}, "W90A": {"target": "W90A", "assay": "flow cytometry, CHO-K1; sub-column 2 of 2"}, "R10A": {"target": "R10A", "assay": "flow cytometry, CHO-K1; sub-column 2 of 2"}, "I46A": {"target": "I46A", "assay": "flow cytometry, CHO-K1; sub-column 2 of 2"}, "Q91A": {"target": "Q91A", "assay": "flow cytometry, CHO-K1; sub-column 2 of 2"}, "R93A": {"target": "R93A", "assay": "flow cytometry, CHO-K1; sub-column 2 of 2"}, "F28A": {"target": "F28A", "assay": "flow cytometry, CHO-K1; sub-column 2 of 2"}, "V49A": {"target": "V49A", "assay": "flow cytometry, CHO-K1; sub-column 2 of 2"}, "K31A": {"target": "K31A", "assay": "flow cytometry, CHO-K1; sub-column 2 of 2"}, "G16A": {"target": "G16A", "assay": "flow cytometry, CHO-K1; sub-column 2 of 2"}, "H36A": {"target": "H36A", "assay": "flow cytometry, CHO-K1; sub-column 2 of 2"}, "G89A": {"target": "G89A", "assay": "flow cytometry, CHO-K1; sub-column 2 of 2"}, "V30A [8]": {"target": "V30A", "assay": "flow cytometry, CHO-K1; sub-column 2 of 2"}, "R87A [9]": {"target": "R87A", "assay": "flow cytometry, CHO-K1; sub-column 2 of 2"}, "K17A": {"target": "K17A", "assay": "flow cytometry, CHO-K1; sub-column 2 of 2"}, "Q15A": {"target": "Q15A", "assay": "flow cytometry, CHO-K1; sub-column 2 of 2"}, "H60A": {"target": "H60A", "assay": "flow cytometry, CHO-K1; sub-column 2 of 2"}, "N88A": {"target": "N88A", "assay": "flow cytometry, CHO-K1; sub-column 2 of 2"}, "P44A": {"target": "P44A", "assay": "flow cytometry, CHO-K1; sub-column 2 of 2"}, "D32A": {"target": "D32A", "assay": "flow cytometry, CHO-K1; sub-column 2 of 2"}, "Q41A [10]": {"target": "Q41A", "assay": "flow cytometry, CHO-K1; sub-column 2 of 2"}, "E9A": {"target": "E9A", "assay": "flow cytometry, CHO-K1; sub-column 2 of 2"}, "Q41A [11]": {"target": "T1, Q41A", "T1 construct": "also called hCD27 Q41A", "T1 receptor": "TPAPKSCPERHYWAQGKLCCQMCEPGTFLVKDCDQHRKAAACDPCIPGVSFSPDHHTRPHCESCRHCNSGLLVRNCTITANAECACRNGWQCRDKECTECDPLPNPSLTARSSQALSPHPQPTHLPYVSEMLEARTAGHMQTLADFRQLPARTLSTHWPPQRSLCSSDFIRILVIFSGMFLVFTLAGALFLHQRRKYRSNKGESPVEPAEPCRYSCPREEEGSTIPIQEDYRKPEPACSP", "assay": "flow cytometry, CHO-K1; single column;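 further: CHO-K1 cells transiently transfected with hCD27 alanine mutant constructs, anti-hCD27 antibody binding measured by flow cytometry, 30 min at 4 °C, wild-type hCD27 binding taken as 100%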"}, "V30A [12]": {"target": "T2, V30A", "T2 construct": "also called hCD27 V30A", "T2 receptor": "T1 receptor with V30A, A41Q", "assay": "flow cytometry, CHO-K1; single column"}, "R87A [13]": {"target": "T3, R87A", "T3 construct": "also called hCD27 R87A", "T3 receptor": "T1 receptor with A41Q, R87A", "assay": "flow cytometry, CHO-K1; single column"}}, "note": "Where a chain is given by its changes, count along the chain named.", "data": [{"molecule": "1F5 hIgG1 (antibody)", "values": [{"measurement": "fold higher EC50 compared to 131AVH6VL6-hIgG1", "setting": "[1]", "result": 4, "unit": "fold"}, {"measurement": "Emax (fold change), NF-κB-luciferase reporter assay", "setting": "[2]", "result": 1.3, "unit": "fold change"}, {"measurement": "Fold Change values at 2.5 µg/ml, NF-κB-luciferase reporter assay", "setting": "[2]", "result": 1.23, "unit": "fold change"}, {"measurement": "Emax (fold change), NF-κB-luciferase reporter assay", "setting": "[3]", "result": 1.48, "unit": "fold change"}, {"measurement": "Fold Change values at 2.5 µg/ml, NF-κB-luciferase reporter assay", "setting": "[3]", "result": 1.34, "unit": "fold change"}, {"measurement": "NF-κB luciferase activity, 10 µg/ml fold change (FIG. 7A)", "setting": "[3]", "result": 2.23, "unit": "fold change"}, {"measurement": "NF-κB luciferase activity, 10 µg/ml fold change (FIG. 7B)", "setting": "[3]", "result": 1.73, "unit": "fold change"}, {"measurement": "EC50", "setting": "[4]", "result": 0.325, "unit": "nM"}, {"measurement": "IC50 (read off the curve)", "setting": "[5]", "result": 4, "unit": "nM"}, {"measurement": "fold higher EC50 compared to 131AVH6VL6-hIgG1", "setting": "[6]", "result": 5, "unit": "fold"}, {"measurement": "EC50", "setting": "[7]", "result": 1.3, "unit": "nM"}, {"measurement": "% of WT hCD27 binding (geo mean FITC)", "setting": "W13A", "result": 82.8, "unit": "%"}, {"measurement": "% of WT hCD27 binding (geo mean FITC)", "setting": "D43A", "result": 86.1, "unit": "%"}, {"measurement": "% of WT hCD27 binding (geo mean FITC)", "setting": "R37A", "result": 88, "unit": "%"}, {"measurement": "% of WT hCD27 binding (geo mean FITC)", "setting": "K38A", "result": 94.2, "unit": "%"}, {"measurement": "% of WT hCD27 binding (geo mean FITC)", "setting": "P8A", "result": 73.1, "unit": "%"}, {"measurement": "% of WT hCD27 binding (geo mean FITC)", "setting": "S63A", "result": 121, "unit": "%"}, {"measurement": "% of WT hCD27 binding (geo mean FITC)", "setting": "W90A", "result": 10, "unit": "%"}, {"measurement": "% of WT hCD27 binding (geo mean FITC)", "setting": "R10A", "result": 113, "unit": "%"}, {"measurement": "% of WT hCD27 binding (geo mean FITC)", "setting": "I46A", "result": 69.7, "unit": "%"}, {"measurement": "% of WT hCD27 binding (geo mean FITC)", "setting": "Q91A", "result": 115, "unit": "%"}, {"measurement": "% of WT hCD27 binding (geo mean FITC)", "setting": "R93A", "result": 85.5, "unit": "%"}, {"measurement": "% of WT hCD27 binding (geo mean FITC)", "setting": "F28A", "result": 46.2, "unit": "%"}, {"measurement": "% of WT hCD27 binding (geo mean FITC)", "setting": "V49A", "result": 92.8, "unit": "%"}, {"measurement": "% of WT hCD27 binding (geo mean FITC)", "setting": "K31A", "result": 120, "unit": "%"}, {"measurement": "% of WT hCD27 binding (geo mean FITC)", "setting": "G16A", "result": 101, "unit": "%"}, {"measurement": "% of WT hCD27 binding (geo mean FITC)", "setting": "H36A", "result": 80, "unit": "%"}, {"measurement": "% of WT hCD27 binding (geo mean FITC)", "setting": "G89A", "result": 68.5, "unit": "%"}, {"measurement": "% of WT hCD27 binding (geo mean FITC)", "setting": "V30A [8]", "result": 88.9, "unit": "%"}, {"measurement": "% of WT hCD27 binding (geo mean FITC)", "setting": "R87A [9]", "result": 7.8, "unit": "%"}, {"measurement": "% of WT hCD27 binding (geo mean FITC)", "setting": "K17A", "result": 112, "unit": "%"}, {"measurement": "% of WT hCD27 binding (geo mean FITC)", "setting": "Q15A", "result": 127, "unit": "%"}, {"measurement": "% of WT hCD27 binding (geo mean FITC)", "setting": "H60A", "result": 110, "unit": "%"}, {"measurement": "% of WT hCD27 binding (geo mean FITC)", "setting": "N88A", "result": 119, "unit": "%"}, {"measurement": "% of WT hCD27 binding (geo mean FITC)", "setting": "P44A", "result": 83.7, "unit": "%"}, {"measurement": "% of WT hCD27 binding (geo mean FITC)", "setting": "D32A", "result": 59.6, "unit": "%"}, {"measurement": "% of WT hCD27 binding (geo mean FITC)", "setting": "Q41A [10]", "result": 66.3, "unit": "%"}, {"measurement": "% of WT hCD27 binding (geo mean FITC)", "setting": "E9A", "result": 120, "unit": "%"}]}, {"molecule": "B1", "values": [{"measurement": "% of WT hCD27 binding (geo mean FITC)", "setting": "Q41A [11]", "result": 33.9, "unit": "%"}, {"measurement": "% of WT hCD27 binding (geo mean FITC)", "setting": "V30A [12]", "result": 82.6, "unit": "%"}, {"measurement": "% of WT hCD27 binding (geo mean FITC)", "setting": "R87A [13]", "result": 114, "unit": "%"}]}]}
